# Data: the supplement of paper PMC10065799, “High-throughput profiling of sequence recognition by tyrosine kinases and SH2 domains using bacterial peptide display” (eLife, 2023)
# Target: FGFR3 (UniProt P22607)
# Assay: phosphorylation enrichment, bacterial display (enrichment ratio); higher = better substrate or ligand; peptides without Tyr show the background
# 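Also: 11-residue human phosphosite peptides and single-mutation variants displayed on the E. coli surface, counted by deep sequencing, each peptide's frequency after selection divided by its frequency in the unselected input library; frequency after pTyr selection over input frequency; kinase dosed for 20-30% of maximal phosphorylation in three min.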
# Chain of FGFR3 (P22607 whole entry, looked up): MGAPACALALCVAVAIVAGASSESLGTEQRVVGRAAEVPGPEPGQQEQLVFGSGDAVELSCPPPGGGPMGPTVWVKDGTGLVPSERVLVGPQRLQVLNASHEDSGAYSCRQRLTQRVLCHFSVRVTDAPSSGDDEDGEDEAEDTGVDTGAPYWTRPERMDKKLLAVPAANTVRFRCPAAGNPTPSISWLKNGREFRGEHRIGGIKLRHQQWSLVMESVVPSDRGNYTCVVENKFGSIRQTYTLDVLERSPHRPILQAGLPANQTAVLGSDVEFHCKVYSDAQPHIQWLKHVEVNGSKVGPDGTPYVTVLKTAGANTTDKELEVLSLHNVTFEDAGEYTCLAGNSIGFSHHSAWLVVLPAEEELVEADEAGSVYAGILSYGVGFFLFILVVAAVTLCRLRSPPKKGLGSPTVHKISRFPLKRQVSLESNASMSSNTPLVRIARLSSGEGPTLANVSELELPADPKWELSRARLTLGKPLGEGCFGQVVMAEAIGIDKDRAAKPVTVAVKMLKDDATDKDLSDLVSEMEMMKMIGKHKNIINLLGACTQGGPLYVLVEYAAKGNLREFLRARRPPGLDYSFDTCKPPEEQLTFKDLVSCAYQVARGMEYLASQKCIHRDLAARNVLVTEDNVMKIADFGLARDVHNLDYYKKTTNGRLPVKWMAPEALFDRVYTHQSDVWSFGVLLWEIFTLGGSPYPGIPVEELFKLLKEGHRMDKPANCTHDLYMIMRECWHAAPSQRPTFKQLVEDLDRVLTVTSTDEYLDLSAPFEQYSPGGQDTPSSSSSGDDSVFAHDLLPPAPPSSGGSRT
row,Sequence,phosphorylation enrichment
1,KNSFKYFMSDD [ATRX_Y203_C200S_YF],0.638
2,GIPIQYPIISE [NOG_Y222_W217G],0.685
3,TYVKSYTIHYS [F5_Y2153_M2148T],0.696
4,SKNSKYNAEST [PSEN1_Y315],0.366
5,DYYDLYGGEKF [PTPN11_Y66],12.9
6,MSGDVYSTDYY [NTRK2_Y702_R699G],2.29
7,TKDTFHKQPMF [GBA_Y451_Y451H],0.391
8,FADIAYNFRHG [PAH_Y166_YF],0.512
9,PLYRKYWPNHI [GREB1L_Y1560],1.07
10,ENRKFYMDLKE [PURA_Y156_YF],0.738
11,LNPLIYTLKNA [OR4C46_Y285],0.886
12,HRGYLYLAIEY [TEK_Y899],0.602
13,CSTIHYNFMCN [TP53_Y234_T230S_YF],0.418
14,SWSTSYSGYRC [NKAPL_Y91_Y96C],0.62
15,RGDTVYTVNCM [KBTBD13_Y404_R408C],0.686
16,YPLELYERVRM [PRKCG_Y312],0.622
17,SVEELYAIPPD [PEAK1_Y797],5.64
18,ATHRSYDSDNP [MMUT_Y146_G145S],0.511
19,SSWPDYVRPLP [HSPB1_Y54_G53D],1.6
20,NTGDFYDLFGG [PTPN11_Y63_YF],0.709
21,QMQLKYSQSDL [SMC1A_Y714_R711Q],0.735
22,DENCFYTRAAS [RPS19_Y54_W52C],0.728
23,LHSEAYLKFNE [PBRM1_Y1610_I1614N_YF],0.945
24,ARRHPYFYAPE [ALB_Y172],1.08
25,TEFSQYMRRKN [MAX_Y73_I71S_YF],0.626
26,LDFPEYNGVDR [CASQ1_Y43_D44N],1.61
27,ERKQTYGSCRK [LACTB_Y473],0.381
28,EDNPEYMRLRN [ADD2_Y31_D28N],0.653
29,GNLQENLTRHV [TGFBR2_Y336_Y336N],0.418

# Target: Fes (UniProt P07332)
# Assay: as above
# Chain of Fes (P07332 whole entry, looked up): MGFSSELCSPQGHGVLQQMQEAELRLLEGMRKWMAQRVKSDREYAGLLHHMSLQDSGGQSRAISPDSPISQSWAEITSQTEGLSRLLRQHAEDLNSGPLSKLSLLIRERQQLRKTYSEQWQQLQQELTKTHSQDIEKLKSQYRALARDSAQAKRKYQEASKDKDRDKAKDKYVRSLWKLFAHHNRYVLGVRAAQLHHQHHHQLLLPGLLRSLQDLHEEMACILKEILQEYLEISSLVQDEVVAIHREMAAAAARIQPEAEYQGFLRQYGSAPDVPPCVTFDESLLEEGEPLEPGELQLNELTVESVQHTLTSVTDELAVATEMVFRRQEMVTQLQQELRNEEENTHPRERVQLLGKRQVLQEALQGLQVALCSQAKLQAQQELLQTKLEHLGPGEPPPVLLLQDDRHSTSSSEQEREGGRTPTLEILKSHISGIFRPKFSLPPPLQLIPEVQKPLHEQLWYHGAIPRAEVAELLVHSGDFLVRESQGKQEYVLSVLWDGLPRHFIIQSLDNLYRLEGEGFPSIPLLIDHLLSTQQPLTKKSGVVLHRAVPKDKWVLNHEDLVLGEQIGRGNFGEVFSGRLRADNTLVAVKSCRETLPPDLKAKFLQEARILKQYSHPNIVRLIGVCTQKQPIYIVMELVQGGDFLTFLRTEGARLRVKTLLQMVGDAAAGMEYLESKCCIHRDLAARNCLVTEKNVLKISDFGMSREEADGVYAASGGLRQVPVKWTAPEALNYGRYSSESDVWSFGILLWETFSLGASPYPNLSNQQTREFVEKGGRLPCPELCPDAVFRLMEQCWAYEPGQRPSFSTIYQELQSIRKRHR
row,Sequence,phosphorylation enrichment
1,KNSFKYFMSDD [ATRX_Y203_C200S_YF],1.02
2,GIPIQYPIISE [NOG_Y222_W217G],1.11
3,TYVKSYTIHYS [F5_Y2153_M2148T],1.15
4,SKNSKYNAEST [PSEN1_Y315],0.609
5,DYYDLYGGEKF [PTPN11_Y66],1.2
6,MSGDVYSTDYY [NTRK2_Y702_R699G],1.16
7,TKDTFHKQPMF [GBA_Y451_Y451H],0.476
8,FADIAYNFRHG [PAH_Y166_YF],0.713
9,PLYRKYWPNHI [GREB1L_Y1560],1.34
10,ENRKFYMDLKE [PURA_Y156_YF],0.989
11,LNPLIYTLKNA [OR4C46_Y285],1.08
12,HRGYLYLAIEY [TEK_Y899],1.22
13,CSTIHYNFMCN [TP53_Y234_T230S_YF],0.693
14,SWSTSYSGYRC [NKAPL_Y91_Y96C],0.993
15,RGDTVYTVNCM [KBTBD13_Y404_R408C],1.08
16,YPLELYERVRM [PRKCG_Y312],1.25
17,SVEELYAIPPD [PEAK1_Y797],1.59
18,ATHRSYDSDNP [MMUT_Y146_G145S],0.777
19,SSWPDYVRPLP [HSPB1_Y54_G53D],0.93
20,NTGDFYDLFGG [PTPN11_Y63_YF],1.06
21,QMQLKYSQSDL [SMC1A_Y714_R711Q],1.32
22,DENCFYTRAAS [RPS19_Y54_W52C],0.936
23,LHSEAYLKFNE [PBRM1_Y1610_I1614N_YF],1.31
24,ARRHPYFYAPE [ALB_Y172],0.766
25,TEFSQYMRRKN [MAX_Y73_I71S_YF],0.901
26,LDFPEYNGVDR [CASQ1_Y43_D44N],3.29
27,ERKQTYGSCRK [LACTB_Y473],0.636
28,EDNPEYMRLRN [ADD2_Y31_D28N],0.969
29,GNLQENLTRHV [TGFBR2_Y336_Y336N],0.558
